Measurements as given in US20130224187A1 (Alexion, published 2013).

T1: mouse C5a (mouse, UniProt P06684 683-755)
T1 construct: also called recombinant mouse C5a
T1 sequence: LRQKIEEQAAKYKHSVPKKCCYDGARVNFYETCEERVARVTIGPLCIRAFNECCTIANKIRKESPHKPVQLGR

T2: human C4a (human, UniProt P0C0L4 680-756)
T2 construct: domain: C4a
T2 sequence (looked up): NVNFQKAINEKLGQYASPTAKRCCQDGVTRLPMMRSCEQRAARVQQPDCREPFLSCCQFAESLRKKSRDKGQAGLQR

T3: human C5a (human, UniProt P01031 678-751)
T3 construct: also called hC5a; free human C5a
T3 sequence: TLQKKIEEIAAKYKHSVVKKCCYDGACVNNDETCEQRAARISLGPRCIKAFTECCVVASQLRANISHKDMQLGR

T4: cynomolgus macaque C5a (cynomolgus macaque)
T4 construct: also called recombinant cynomolgus macaque C5a; cynomolgus C5a
T4 chain: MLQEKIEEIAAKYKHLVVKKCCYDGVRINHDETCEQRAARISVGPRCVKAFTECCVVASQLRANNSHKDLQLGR

T5: human C5a desarg (human, UniProt P01031 678-750)
T5 construct: also called desarginated C5a; hC5a desarg
T5 sequence: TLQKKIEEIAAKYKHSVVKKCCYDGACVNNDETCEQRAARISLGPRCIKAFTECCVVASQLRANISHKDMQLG

B1: BNJ383 (antibody, human IgG2, kappa, V domains shown)
VH: QVQLVQSGAEVKKPGASVKVSCKASGYTFTDYSMDWVRQAPGQGLEWMGAIHLNTGYTNYNQKFKGRVTMTRDTSTSTVYMELSSLRSEDTAVYYCARGFYDGYSPMDYWGQGTTVTVSS
VL: DIQMTQSPSSLSASVGDRVTITCRASESVDSYGNSFMHWYQQKPGKAPKLLIYRASNLESGVPSRFSGSGSGTDFTLTISSLQPEDFATYYCQQSNEDPYTFGGGTKVEIKR
notes: Humanized bivalent full length IgG; also called anti-hC5a antibody
B2: 5an180ME (antibody, V domains shown)
VH: EVQLQQPGAEIVRPGASVKLSCRASGYTFTDYWMNWVKQRPGQGLEWIGTIDPSDSYTIYNQKFKGKATLTVDTSSTTAYIQLSSLTSEDSAVYFCARGEDYDVSSYTMDYWGQGTSVTVSS
VL: DIQMTQSPASLSASVGETVTITCRASENIYSYLAWYQQKQGKSPQLLVYNAKTLAEGVPSRFSGSGSGTQFSLKINSLQPEDFGSYYCQHHYGTPYTFGGGTKLEIKR
notes: Full length mouse IgG2a
B3: 5an101ME (antibody, V domains shown)
VH: EVQLQQSGPELVKPGSSVKISCKASGYTFTDYSMDWVKQSHGKSLEWIGAINPNSGGTNYSQKFKDKATLTVDKSSSTAYMELRSLTSEDSAVYYCASSGSYDGYYAMDYWGQGTSVTVSS
VL: DIVMTQSPASLAVSLGQRATISCRASESVDSYGNSFMHWYQQKPGQPPKLLIYRASNLESGIPARFSGSGSRTDFTLTINPVEADDVATYYCQQSNEDPYTFGGGTKLEIKR
notes: Full length mouse IgG2a
B4: 5an048ME (antibody, V domains shown)
VH: EVRLQQSGPELVKPGASVRISCKASGYTFNDYYYMNWVKQSHGKSLEWIGYIFPKTGGTHYNQRFKGKATLTVDKSSSTAYMELRSLTSEDSAVYYCASGPFAYWGQGTLVTVSA
VL: EIVLTQSPAIMSASPGEKVTMTCRASSSVSSSYLHWYQQKSGASPKLWIYSTSNLASGVPARFSGSGSGTSYSLTISSVEAEDAATYYCQQYSGYPLTFGGGTKLEIKR
notes: Full length mouse IgG2a
B5: 5an179ME (antibody, V domains shown)
VH: EVQLQQSGPELVKPGASVRMSCKASGYTFTSYLIHWVKQKPGQGLEWIGYIYPFNDGTKNNENFKGKATLTSDKSSSTVYMEVSSLTSEDSAVYYCARSHGPHYYGGSYGYHFDYWGQGTTLTVSS
VL: DVVMTQTPLSLPVSLGDQASISCRSSQSLVHSNGNTYLHWYLQKPGQSPKLLIYKVSNRFSGVPDRFSGSGSGTDFTLKISRVEAEDLGVYFCSQSTHVPLTFGAGTKLELKR
notes: Full length mouse IgG2a
B6: 5an178ME (antibody, V domains shown)
VH: EVKLVESGGGLVQPGGSRKLSCAASGFTFSDYGMVWVRQAPGKGLEWVAFISSGSSNIYYADTVKGRFTISRDNPKNTLFLQMNSLRSEDTAIYYCGRAFSFYYGYDYWGQGTTLTVSS
VL: EIVLTQSPASLAVSLGQRATISCSASESVEYFGTSLMQWYQQKPGQPPKLLIYAASNVESGVPARFSGSGSGTDFSLNIHPVEEDDIAMYFCQQSRKVPWTFGGGTKLEIKR
notes: Full length mouse IgG2a

Target: T1, mouse C5a
Experiment: SPR (Biacore); antibody captured by anti-human Fc on CM5 chip, recombinant mouse C5a 0.6-5.9 nM as analyte; 1:1 Langmuir fit; footnote: only an approximation of the KD
Method: The surface was regenerated with 20 mM HCl, 0.02% P20 after each cycle to remove bound antibody and antigen. The data were evaluated using Biacore BlAevaluation software using a 1:1 Langmuir Model Fit (Rmax:Global Fit; R1:Local Fit).

Binder	Kd [nM]
B1	~0.379

Target: T6, human full-length C5 (human, UniProt P01031 19-673; P01031 678-1676)
T6 construct: mature; also called uncleaved human C5; native, fully-folded human C5
T6 sequence (P01031 19-673 limits assumed, one chain of several): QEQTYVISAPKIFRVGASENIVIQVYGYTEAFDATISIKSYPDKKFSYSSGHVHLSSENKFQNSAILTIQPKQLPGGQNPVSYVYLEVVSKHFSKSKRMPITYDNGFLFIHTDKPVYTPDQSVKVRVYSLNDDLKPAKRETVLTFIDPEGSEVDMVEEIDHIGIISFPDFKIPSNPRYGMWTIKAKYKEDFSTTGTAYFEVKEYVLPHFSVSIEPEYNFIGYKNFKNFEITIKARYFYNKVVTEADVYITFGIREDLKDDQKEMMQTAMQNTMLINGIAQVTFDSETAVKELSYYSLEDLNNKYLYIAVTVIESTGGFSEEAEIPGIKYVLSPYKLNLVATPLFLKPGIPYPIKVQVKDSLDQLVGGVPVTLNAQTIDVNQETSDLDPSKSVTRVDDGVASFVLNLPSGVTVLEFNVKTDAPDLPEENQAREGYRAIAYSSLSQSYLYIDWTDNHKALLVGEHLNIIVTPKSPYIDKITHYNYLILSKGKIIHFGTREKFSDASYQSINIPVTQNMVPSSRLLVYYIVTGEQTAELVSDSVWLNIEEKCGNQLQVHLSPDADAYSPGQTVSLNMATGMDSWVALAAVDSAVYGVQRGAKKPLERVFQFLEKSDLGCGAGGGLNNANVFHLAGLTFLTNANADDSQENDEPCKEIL
Experiment: Biolayer interferometry (Octet); biotinylated antigen on streptavidin tip, IgG in solution
Method: (§1) These antibodies were evaluated for specificity using Biolayer Interferometry on an Octet (ForteBio Inc.).

Binder	binding result
B2	no binding (tested: 20 nM)
B3	no binding (tested: 20 nM)

Target: T7, human C3a (human, UniProt P01024 672-748)
T7 construct: domain: C3a
T7 sequence (P01024 672-748 limits assumed): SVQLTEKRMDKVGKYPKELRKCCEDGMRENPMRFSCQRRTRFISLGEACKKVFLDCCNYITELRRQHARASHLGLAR
Experiment: as above
Method: as §1

Binder	binding result
B2	no binding (tested: 20 nM)
B3	no binding (tested: 20 nM)
B4	no binding (tested: 20 nM)
B5	no binding (tested: 20 nM)
B6	no binding (tested: 20 nM)

Target: T2, human C4a
Experiment: as above
Method: as §1

Binder	binding result
B2	no binding (tested: 20 nM)
B3	no binding (tested: 20 nM)
B4	no binding (tested: 20 nM)
B5	no binding (tested: 20 nM)
B6	no binding (tested: 20 nM)

Target: T3, human C5a
Experiment: Biolayer interferometry (Octet)

Binder	binding result
B2	binds
B3	binds

Target: T4, cynomolgus macaque C5a
Experiment: SPR (Biacore); antibody captured by anti-human Fc on CM5 chip, recombinant cynomolgus C5a 0.6-5.9 nM as analyte; 1:1 Langmuir fit
Method: The surface was regenerated with 20 mM HCl, 0.02% surfactant P20 (Biacore) after each cycle to remove bound antibody and antigen. The data was evaluated using Biacore BlAevaluation software using a 1:1 Langmuir Model Fit (Rmax:Global Fit; R1:Local Fit). These experiments were for screening purposes with a minimal number of analyte concentrations (3 to 4) with 1 duplicate.

Binder	Kd [nM]
B1	3.3

Target: T3, human C5a
Experiment: Biolayer interferometry (Octet); biotinylated antigen on streptavidin tip, 20 nM IgG in solution
Method: as §1

Binder	binding result
B4	binds
B5	binds
B6	binds

Target: T5, human C5a desarg
Experiment: as above
Method: as §1

Binder	binding result
B2	binds
B3	binds
B4	binds
B5	binds
B6	binds
